Test results: US20220169693A1, “Screening Assays, Modulators and Modulation of Intracellular Signalling Mediated by Immunoglobulin Superfamily Cell Adhesion Molecules” (Monash University, priority 2018, published 2022)

Assays:
AT1R = biological target: T1, AT1R (Homo sapiens, UniProt P30556); assay: Functional competition: Ang II-induced p65/PCNA expression in AT1R-CHO cells transfected with full length mutant S391A-RAGE; assay type: cell-based; details: for transactivation of the over-expressed cytosolic tail in the presence of S391A-RAGE1-404 (p65): Ang II 1 μM 2 h (FIG. 7A)
T1 construct: Rluc8; expressed in transfected cells; S391A-RAGE transiently transfected
T1 sequence (P30556 1-359): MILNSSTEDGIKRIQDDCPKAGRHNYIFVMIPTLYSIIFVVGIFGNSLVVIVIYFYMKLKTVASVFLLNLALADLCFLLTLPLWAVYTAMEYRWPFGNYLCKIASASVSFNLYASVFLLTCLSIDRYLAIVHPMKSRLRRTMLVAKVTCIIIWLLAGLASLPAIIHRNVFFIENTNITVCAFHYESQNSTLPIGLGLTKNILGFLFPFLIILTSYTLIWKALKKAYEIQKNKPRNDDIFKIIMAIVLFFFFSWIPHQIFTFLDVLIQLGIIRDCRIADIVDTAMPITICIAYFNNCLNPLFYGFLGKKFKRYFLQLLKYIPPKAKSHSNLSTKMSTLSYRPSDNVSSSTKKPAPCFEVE
Protocol: Adult retinal pigment epithelial (ARPE) cells were cultured in Dulbecco's modified Eagle's medium (DMEM)/F12 endothelial cell growth supplement (ECGS) supplemented media. Chinese Hamster Ovary (CHO) cells were cultured using F12 media (10% FCS with 2 mM glutamine). Human microvascular endothelial cells (HMEC) were cultured in MCDB 131 medium (10% FCS with 10 mM glutamine, EGF and hydrocortisone).
100 ng of AT1R-Rluc8 construct was transfected into CHO cells using Lipofectamine 2000 (Thermo). Stable transfectants were selected using G418. AT1R-CHO were then transiently transfected with the IgSF CAM and/or RAGE constructs using Lipofectamine 2000 (Invitrogen) and incubated for 16h.
After 2 hours of exposure to Ang II (1 μM) cells were placed in Trizol, mRNA extracted and cDNA synthesized. Changes in the gene expression of the NFκB subunit, p65 (RelA) or NFκB-activated target genes (e.g ICAM-1) were estimated by quantitative real-time RT-PCR, performed using the TaqMan system based on real-time detection of accumulated fluorescence (ABI Prism 7700, Perkin-Elmer Inc, PE Biosystems, Foster City, Calif., USA). Gene expression was normalized to 18S mRNA and reported as fold change compared to the level of expression in untreated control mice/cells, which were given an arbitrary value of 1.

RAGE/Rluc8 = biological target: T2, RAGE/Rluc8 (UniProt Q15109 23-404); assay: BRET saturation assay (FIGS. 13A, 13D)
T2 construct: whole, on cells; not shown: Rluc8, a variant of Renilla luciferase
Protocol: (§1) The BRET ratio was calculated by subtracting the ratio of ‘acceptor emission’ over ‘donor emission’ for a cell sample expressing Rluc8-tagged protein alone from the same ratio for a cell sample expressing both Rluc8 and Venus-tagged proteins. Alternatively, the ligand-induced BRET signal was calculated by subtracting the ratio of ‘acceptor emission’ over ‘donor emission’ for a vehicle-treated cell sample from the same ratio for a second aliquot of the same cells treated with agonist.
(§2) For the BRET kinetic assays, the final pre-treatment reading is presented at the zero time point (time of ligand/vehicle addition). For the BRET saturation assays, fluorescence after light excitation was measured on an EnVision 2102 multi-label plate reader (PerkinElmer, Glen Waverley, Victoria, Australia) using a 485/14 excitation filter, 535/25 emission filter and D505 mirror. The fluorescence/luminescence ratio was generated by dividing the fluorescence values in arbitrary units (obtained with the EnVision) by the luminescence values also in arbitrary units (obtained as part of the BRET assay).

[1] = biological target: T3, untagged RAGE (RAGE cDNA co-transfected) (UniProt Q15109 23-404); assay: BRET saturation assay, competition with EpCAM/Rluc8 (FIG. 11D)
T3 construct: whole, on cells
Protocol: as §1, §2

[2] = biological target: T4, Rluc8-labelled CADM4 (CADM4/Rluc8) (UniProt Q8NFZ8 21-388); assay: BRET saturation assay (FIG. 12D)
T4 construct: whole, on cells; not shown: Rluc8, a variant of Renilla luciferase
T4 sequence (looked up): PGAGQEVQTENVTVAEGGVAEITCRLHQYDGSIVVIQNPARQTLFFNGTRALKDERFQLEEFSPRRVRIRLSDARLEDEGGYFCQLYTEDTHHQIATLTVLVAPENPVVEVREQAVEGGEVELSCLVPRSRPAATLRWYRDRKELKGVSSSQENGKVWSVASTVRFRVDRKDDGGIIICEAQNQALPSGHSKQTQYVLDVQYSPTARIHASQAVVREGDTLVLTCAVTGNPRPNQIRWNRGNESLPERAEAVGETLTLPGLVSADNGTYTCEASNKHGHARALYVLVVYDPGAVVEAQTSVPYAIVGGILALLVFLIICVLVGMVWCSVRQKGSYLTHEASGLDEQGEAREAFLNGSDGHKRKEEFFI
Protocol: as §1, §2

[3] = biological target: T5, Venus-labelled CADM4 (CADM4/Venus) (UniProt Q8NFZ8 21-388); assay: Receptor-HIT BRET: CADM4/Venus + β-arrestin2/Rluc8 ± untagged AT1, after AngII
T5 construct: whole, on cells; not shown: Venus, a variant of green fluorescent protein
T5 sequence (looked up): T4 sequence (looked up)
Protocol: as §1
(§3) GPCRs untagged with respect to the BRET system were then co-expressed in the HEK293FT cells, or the cells were transfected with pcDNA3 as a control. […] A ligand-induced BRET signal was indicative of recruitment of the BRET-tagged β-arrestin2 proximal to the BRET-tagged CAM, thereby indicating close proximity between the CAM and the activated GPCR.

human ALCAM/Rluc8 = biological target: T6, human ALCAM/Rluc8 (human, UniProt Q13740 28-583); assay: Receptor-HIT BRET: ALCAM/Rluc8 + β-arrestin2/Venus ± untagged AT1, after AngII
T6 construct: also called ALCAM/Rluc8 (human ALCAM); not shown: Rluc8, a variant of Renilla luciferase
T6 sequence: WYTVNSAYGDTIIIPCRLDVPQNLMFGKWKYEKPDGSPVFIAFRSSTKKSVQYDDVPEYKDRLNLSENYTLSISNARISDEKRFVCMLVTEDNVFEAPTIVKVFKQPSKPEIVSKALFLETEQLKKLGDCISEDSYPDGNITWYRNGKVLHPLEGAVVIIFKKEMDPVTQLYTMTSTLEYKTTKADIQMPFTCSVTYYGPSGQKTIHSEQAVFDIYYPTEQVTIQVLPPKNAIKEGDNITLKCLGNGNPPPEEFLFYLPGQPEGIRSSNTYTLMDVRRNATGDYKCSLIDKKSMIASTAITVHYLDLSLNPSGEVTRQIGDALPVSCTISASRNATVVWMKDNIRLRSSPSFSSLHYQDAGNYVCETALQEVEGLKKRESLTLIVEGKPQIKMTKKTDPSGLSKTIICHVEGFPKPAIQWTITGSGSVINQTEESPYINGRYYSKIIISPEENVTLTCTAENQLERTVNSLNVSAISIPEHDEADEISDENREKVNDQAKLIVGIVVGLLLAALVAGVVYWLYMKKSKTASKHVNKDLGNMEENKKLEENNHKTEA
Protocol: as §1, §3

mouse ALCAM/Rluc8 = biological target: T7, mouse ALCAM/Rluc8 (mouse, UniProt Q61490 28-583); assay: as above
T7 construct: also called ALCAM/Rluc8 (mouse ALCAM); not shown: Rluc8, a variant of Renilla luciferase
T7 sequence: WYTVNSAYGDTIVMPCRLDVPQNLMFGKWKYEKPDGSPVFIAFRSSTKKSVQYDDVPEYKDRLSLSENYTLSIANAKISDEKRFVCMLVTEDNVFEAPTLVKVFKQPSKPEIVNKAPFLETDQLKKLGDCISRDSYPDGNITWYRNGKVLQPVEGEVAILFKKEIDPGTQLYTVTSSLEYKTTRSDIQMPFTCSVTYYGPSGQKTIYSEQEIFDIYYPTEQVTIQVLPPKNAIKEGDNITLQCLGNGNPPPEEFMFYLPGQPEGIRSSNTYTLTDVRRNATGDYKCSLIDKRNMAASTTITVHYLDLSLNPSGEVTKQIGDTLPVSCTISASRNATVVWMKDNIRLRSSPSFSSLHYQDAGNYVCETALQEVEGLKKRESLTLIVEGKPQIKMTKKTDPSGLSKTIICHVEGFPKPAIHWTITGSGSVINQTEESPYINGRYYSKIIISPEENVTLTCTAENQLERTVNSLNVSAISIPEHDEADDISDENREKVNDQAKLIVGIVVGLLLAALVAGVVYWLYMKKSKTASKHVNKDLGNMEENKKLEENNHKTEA
Protocol: as §1, §3

[4] = biological target: T8, Venus-labelled mouse ALCAM (ALCAM/Venus) (mouse, UniProt Q61490 28-583); assay: Receptor-HIT BRET: ALCAM/Venus + β-arrestin2/Rluc8 ± untagged AT1, after AngII
T8 construct: also called mouse ALCAM/Venus; not shown: Venus, a variant of green fluorescent protein
T8 sequence: T7 sequence
Protocol: as §1, §3

[5] = biological target: T4, Rluc8-labelled CADM4 (CADM4/Rluc8); assay: Receptor-HIT BRET: CADM4/Rluc8 + β-arrestin2/Venus ± untagged AT1, after AngII
Protocol: as §1, §3

T3 sequence (Q15109 23-404): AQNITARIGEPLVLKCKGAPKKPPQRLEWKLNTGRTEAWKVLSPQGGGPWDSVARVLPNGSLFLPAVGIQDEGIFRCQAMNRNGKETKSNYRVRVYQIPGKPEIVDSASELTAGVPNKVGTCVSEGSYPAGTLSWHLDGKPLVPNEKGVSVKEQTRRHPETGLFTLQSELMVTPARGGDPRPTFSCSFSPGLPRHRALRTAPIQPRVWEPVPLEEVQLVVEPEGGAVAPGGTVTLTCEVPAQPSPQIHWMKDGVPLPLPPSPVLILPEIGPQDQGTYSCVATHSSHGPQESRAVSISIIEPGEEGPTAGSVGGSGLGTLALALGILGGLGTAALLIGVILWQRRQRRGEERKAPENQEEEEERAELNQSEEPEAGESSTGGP
T2 sequence (Q15109 23-404): as above

For “MKKSKTASKHVNKDLGNMEENKKLEENNHKTEA (Synthetic peptide - Truncated amino acid sequence of human ALCAM protein corresponding to residues 551 to 583 (corresponding to the cytosolic tail of ALCAM)) [ALCAM551-583]”, the “transactivation of the over-expressed cytosolic tail in the presence of S391A-RAGE1-404 (p65)” value (AT1R; AT1R-CHO cells) was “able to overcome inhibition of transactivation”.

With “MSVRQKGSYLTHEASGLDEQGEAREAFLNGSDGHKRKEEFFI [CADM4336-388]” the “transactivation of the over-expressed cytosolic tail in the presence of S391A-RAGE1-404 (p65)” value (AT1R; AT1R-CHO cells) was “able to overcome inhibition of transactivation”.

In the case of “S391A-RAGE1-404: full length human mutant S391A-RAGE”, the “ability of Ang II to induce p65-NFκB expression after transfection of the mutant” value (AT1R; AT1R-CHO cells, Ang II 1 μM 2 h, vs pCIneo (FIG. 7A)) is reported as “fails to confer the ability of Ang II to induce expression” and the “transactivation by AT1R as indicated by PCNA expression after transfection of the mutant” value (AT1R; Ang II 1 μM 2 h, vs pCIneo (FIG. 7B)) is reported as “unable to be transactivated”.

B1: Venus-tagged Angiotensin II receptor 1 (AT1/Venus) (receptor, UniProt P30556 1-359, looked up)
chain: T1 sequence (P30556 1-359)
notes: whole, on cells; not shown: Venus, a variant of green fluorescent protein
B1: binds (RAGE/Rluc8); binds [1]; binds [2].

B2: AT1 (untagged, co-expressed in HEK293FT cells) (receptor, UniProt P30556 1-359, looked up)
chain: T1 sequence (P30556 1-359)
notes: whole, on cells; Untagged with respect to BRET (Receptor-HIT assays); also called Angiotensin II receptor 1
B2: binds [3]; binds (human ALCAM/Rluc8); binds (mouse ALCAM/Rluc8). B2: binds [4]; binds [5].
